Experimental data from patent US20200121803A1 (published 2020).

T1: human CD98, endogenously expressed on Molt-4 human acute lymphoblastic leukemia cells (human)
T1 chain: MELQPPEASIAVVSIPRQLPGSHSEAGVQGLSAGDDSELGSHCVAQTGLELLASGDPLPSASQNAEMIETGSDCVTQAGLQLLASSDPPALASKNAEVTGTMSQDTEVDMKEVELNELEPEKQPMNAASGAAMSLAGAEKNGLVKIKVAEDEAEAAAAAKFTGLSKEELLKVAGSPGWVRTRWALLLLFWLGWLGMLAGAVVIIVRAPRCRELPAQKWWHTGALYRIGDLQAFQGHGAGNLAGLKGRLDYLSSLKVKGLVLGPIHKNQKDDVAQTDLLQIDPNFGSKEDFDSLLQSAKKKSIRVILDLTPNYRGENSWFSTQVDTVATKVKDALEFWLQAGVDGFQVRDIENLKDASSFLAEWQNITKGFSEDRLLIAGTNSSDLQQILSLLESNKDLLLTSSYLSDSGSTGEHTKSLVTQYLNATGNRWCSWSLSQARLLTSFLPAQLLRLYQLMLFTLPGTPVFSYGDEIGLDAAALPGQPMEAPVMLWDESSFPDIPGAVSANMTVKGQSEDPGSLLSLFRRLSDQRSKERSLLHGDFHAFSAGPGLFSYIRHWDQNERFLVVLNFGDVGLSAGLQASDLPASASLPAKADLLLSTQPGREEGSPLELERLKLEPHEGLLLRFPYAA


Target: T1, human CD98, endogenously expressed on …
Assay: cell-based or functional assay

Row | Binder | % Cell Viability at 50 nM [%] | Molt4 IC50 [nM]
1 | CD98 (CL-huAb110)-CZ (antibody, human IgG1, kappa, L234A L235A, V domains shown, synthon CZ on reduced interchain cysteines (sites not given)) VH: EVQLVQSGAEVKKPGASVKVSCKASGFTFSDYTMAWVRQAPGQGLEWVATIIYDARGTYYRDAVKGRFTITRDNSTSTLYLELSSLRSEDTAVYYCARQSDDTYYYWGYFDYWGQGTMVTVSS VL: DIVMTQTPLSLPVTPGEPASINCKSSQSLLFSGNQKNYLAWYLQKPGQSPQLLIYWASTRQSGVPDRFSGSGSGTDFTLKISRVEAEDVGIYYCQQYYSSPYTFGQGTKLEIKR | 0.8 | 0.064
2 | CD98 (CL-huAb108)-AAA (antibody, human IgG1, kappa, L234A L235A, V domains shown, synthon AAA on reduced interchain cysteines (sites not given)) VH: EVQLVQSGAEVKKPGASVKVSCKASGFTFSDYTMAWVRQAPGQGLEWVATIIYSGRGTYYRDAVKGRFTITRDNSTSTLYLELSSLRSEDTAVYYCARQSDDTYYYWGYFDYWGQGTMVTVSS VL: DIVMTQTPLSLPVTPGEPASINCKSSQSLLFSGNQKNYLAWYLQKPGQSPQLLIYWASTRQSGVPDRFSGSGSGTDFTLKISRVEAEDVGIYYCQQYYDVPYTFGQGTKLEIKR | 2.9 | 0.18
3 | CD98 (CL-huAb102)-TX (antibody, human IgG1, kappa, L234A L235A, V domains shown, synthon TX on reduced interchain cysteines (sites not given)) VH: EVQLVESGGGLVQPGGSLRLSCATSGFTFIDYYMSWVRQAPGKGLEWLGFIRNKANRYTTEYSASVKGRFTISRDNSKSILYLQMNSLKTEDTAVYYCTRDRPAWFVYWGQGTLVTVSS VL: DIVMTQTPLSLPVTPGEPASISCKSSQSLLYSSNQKNYLAWYLQKPGQSPQLLIYWASTRESGVPDRFSGSGSGTDFTLKISRVEAEDVGVYYCQQYYSYPYTFGGGTKVEIKR | 2.8 | 0.05
4 | CD98 (CL-huAb108)-YY (antibody, human IgG1, kappa, L234A L235A, V domains shown, synthon YY on reduced interchain cysteines (sites not given)) VH: EVQLVQSGAEVKKPGASVKVSCKASGFTFSDYTMAWVRQAPGQGLEWVATIIYSGRGTYYRDAVKGRFTITRDNSTSTLYLELSSLRSEDTAVYYCARQSDDTYYYWGYFDYWGQGTMVTVSS VL: DIVMTQTPLSLPVTPGEPASINCKSSQSLLFSGNQKNYLAWYLQKPGQSPQLLIYWASTRQSGVPDRFSGSGSGTDFTLKISRVEAEDVGIYYCQQYYDVPYTFGQGTKLEIKR | 2.9 | 0.14
5 | CD98 (CL-huAb104)-AAA (antibody, human IgG1, kappa, L234A L235A, V domains shown, synthon AAA on reduced interchain cysteines (sites not given)) VH: EVQLVESGGGLVQPGGSLRLSCATSGFTFIDYYMSWVRQAPGKGLEWLGFIRNKAYGYTTEYSASVKGRFTISRDNSKSILYLQMNSLKTEDTAVYYCTRDRPAWFVYWGQGTLVTVSS VL: DIVMTQTPLSLPVTPGEPASISCKSSQSLLYSSNQKNYLAWYLQKPGQSPQLLIYWASTRESGVPDRFSGSGSGTDFTLKISRVEAEDVGVYYCQQYYSYPYTFGGGTKVEIKR | 2.2 | 0.04
6 | CD98 (CL-huAb110)-YY (antibody, human IgG1, kappa, L234A L235A, V domains shown, synthon YY on reduced interchain cysteines (sites not given)) VH: EVQLVQSGAEVKKPGASVKVSCKASGFTFSDYTMAWVRQAPGQGLEWVATIIYDARGTYYRDAVKGRFTITRDNSTSTLYLELSSLRSEDTAVYYCARQSDDTYYYWGYFDYWGQGTMVTVSS VL: DIVMTQTPLSLPVTPGEPASINCKSSQSLLFSGNQKNYLAWYLQKPGQSPQLLIYWASTRQSGVPDRFSGSGSGTDFTLKISRVEAEDVGIYYCQQYYSSPYTFGQGTKLEIKR | 1.9 | 0.13
7 | CD98 (CL-huAb108)-TX (antibody, human IgG1, kappa, L234A L235A, V domains shown, synthon TX on reduced interchain cysteines (sites not given)) VH: EVQLVQSGAEVKKPGASVKVSCKASGFTFSDYTMAWVRQAPGQGLEWVATIIYSGRGTYYRDAVKGRFTITRDNSTSTLYLELSSLRSEDTAVYYCARQSDDTYYYWGYFDYWGQGTMVTVSS VL: DIVMTQTPLSLPVTPGEPASINCKSSQSLLFSGNQKNYLAWYLQKPGQSPQLLIYWASTRQSGVPDRFSGSGSGTDFTLKISRVEAEDVGIYYCQQYYDVPYTFGQGTKLEIKR | 3 | 0.15
8 | CD98 (CL-huAb104)-TX (antibody, human IgG1, kappa, L234A L235A, V domains shown, synthon TX on reduced interchain cysteines (sites not given)) VH: EVQLVESGGGLVQPGGSLRLSCATSGFTFIDYYMSWVRQAPGKGLEWLGFIRNKAYGYTTEYSASVKGRFTISRDNSKSILYLQMNSLKTEDTAVYYCTRDRPAWFVYWGQGTLVTVSS VL: DIVMTQTPLSLPVTPGEPASISCKSSQSLLYSSNQKNYLAWYLQKPGQSPQLLIYWASTRESGVPDRFSGSGSGTDFTLKISRVEAEDVGVYYCQQYYSYPYTFGGGTKVEIKR | 4.3 | 0.06
9 | CD98 (CL-huAb102)-TV (antibody, human IgG1, kappa, L234A L235A, V domains shown, synthon TV on reduced interchain cysteines (sites not given)) VH: EVQLVESGGGLVQPGGSLRLSCATSGFTFIDYYMSWVRQAPGKGLEWLGFIRNKANRYTTEYSASVKGRFTISRDNSKSILYLQMNSLKTEDTAVYYCTRDRPAWFVYWGQGTLVTVSS VL: DIVMTQTPLSLPVTPGEPASISCKSSQSLLYSSNQKNYLAWYLQKPGQSPQLLIYWASTRESGVPDRFSGSGSGTDFTLKISRVEAEDVGVYYCQQYYSYPYTFGGGTKVEIKR | 1.5 | 0.02
10 | CD98 (CL-huAb104)-TV (antibody, human IgG1, kappa, L234A L235A, V domains shown, synthon TV on reduced interchain cysteines (sites not given)) VH: EVQLVESGGGLVQPGGSLRLSCATSGFTFIDYYMSWVRQAPGKGLEWLGFIRNKAYGYTTEYSASVKGRFTISRDNSKSILYLQMNSLKTEDTAVYYCTRDRPAWFVYWGQGTLVTVSS VL: DIVMTQTPLSLPVTPGEPASISCKSSQSLLYSSNQKNYLAWYLQKPGQSPQLLIYWASTRESGVPDRFSGSGSGTDFTLKISRVEAEDVGVYYCQQYYSYPYTFGGGTKVEIKR | 1.4 | 0.03
11 | CD98 (CL-huAb104)-YY (antibody, human IgG1, kappa, L234A L235A, V domains shown, synthon YY on reduced interchain cysteines (sites not given)) VH: EVQLVESGGGLVQPGGSLRLSCATSGFTFIDYYMSWVRQAPGKGLEWLGFIRNKAYGYTTEYSASVKGRFTISRDNSKSILYLQMNSLKTEDTAVYYCTRDRPAWFVYWGQGTLVTVSS VL: DIVMTQTPLSLPVTPGEPASISCKSSQSLLYSSNQKNYLAWYLQKPGQSPQLLIYWASTRESGVPDRFSGSGSGTDFTLKISRVEAEDVGVYYCQQYYSYPYTFGGGTKVEIKR | 2.7 | 0.03
12 | CD98 (CL-huAb102)-YY (antibody, human IgG1, kappa, L234A L235A, V domains shown, synthon YY on reduced interchain cysteines (sites not given)) VH: EVQLVESGGGLVQPGGSLRLSCATSGFTFIDYYMSWVRQAPGKGLEWLGFIRNKANRYTTEYSASVKGRFTISRDNSKSILYLQMNSLKTEDTAVYYCTRDRPAWFVYWGQGTLVTVSS VL: DIVMTQTPLSLPVTPGEPASISCKSSQSLLYSSNQKNYLAWYLQKPGQSPQLLIYWASTRESGVPDRFSGSGSGTDFTLKISRVEAEDVGVYYCQQYYSYPYTFGGGTKVEIKR | 3.1 | 0.05
13 | CD98 (CL-huAb108)-TV (antibody, human IgG1, kappa, L234A L235A, V domains shown, synthon TV on reduced interchain cysteines (sites not given)) VH: EVQLVQSGAEVKKPGASVKVSCKASGFTFSDYTMAWVRQAPGQGLEWVATIIYSGRGTYYRDAVKGRFTITRDNSTSTLYLELSSLRSEDTAVYYCARQSDDTYYYWGYFDYWGQGTMVTVSS VL: DIVMTQTPLSLPVTPGEPASINCKSSQSLLFSGNQKNYLAWYLQKPGQSPQLLIYWASTRQSGVPDRFSGSGSGTDFTLKISRVEAEDVGIYYCQQYYDVPYTFGQGTKLEIKR | 1.1 | 0.08
14 | CD98 (CL-huAb110)-TX (antibody, human IgG1, kappa, L234A L235A, V domains shown, synthon TX on reduced interchain cysteines (sites not given)) VH: EVQLVQSGAEVKKPGASVKVSCKASGFTFSDYTMAWVRQAPGQGLEWVATIIYDARGTYYRDAVKGRFTITRDNSTSTLYLELSSLRSEDTAVYYCARQSDDTYYYWGYFDYWGQGTMVTVSS VL: DIVMTQTPLSLPVTPGEPASINCKSSQSLLFSGNQKNYLAWYLQKPGQSPQLLIYWASTRQSGVPDRFSGSGSGTDFTLKISRVEAEDVGIYYCQQYYSSPYTFGQGTKLEIKR | 2.5 | 0.14
15 | CD98 (CL-huAb110)-AAA (antibody, human IgG1, kappa, L234A L235A, V domains shown, synthon AAA on reduced interchain cysteines (sites not given)) VH: EVQLVQSGAEVKKPGASVKVSCKASGFTFSDYTMAWVRQAPGQGLEWVATIIYDARGTYYRDAVKGRFTITRDNSTSTLYLELSSLRSEDTAVYYCARQSDDTYYYWGYFDYWGQGTMVTVSS VL: DIVMTQTPLSLPVTPGEPASINCKSSQSLLFSGNQKNYLAWYLQKPGQSPQLLIYWASTRQSGVPDRFSGSGSGTDFTLKISRVEAEDVGIYYCQQYYSSPYTFGQGTKLEIKR | 1.9 | 0.16
16 | CD98 (CL-huAb110)-TV (antibody, human IgG1, kappa, L234A L235A, V domains shown, synthon TV on reduced interchain cysteines (sites not given)) VH: EVQLVQSGAEVKKPGASVKVSCKASGFTFSDYTMAWVRQAPGQGLEWVATIIYDARGTYYRDAVKGRFTITRDNSTSTLYLELSSLRSEDTAVYYCARQSDDTYYYWGYFDYWGQGTMVTVSS VL: DIVMTQTPLSLPVTPGEPASINCKSSQSLLFSGNQKNYLAWYLQKPGQSPQLLIYWASTRQSGVPDRFSGSGSGTDFTLKISRVEAEDVGIYYCQQYYSSPYTFGQGTKLEIKR | 1 | 0.09
17 | CD98 (CL-huAb102)-AAD (antibody, human IgG1, kappa, L234A L235A, V domains shown, synthon AAD on reduced interchain cysteines (sites not given)) VH: EVQLVESGGGLVQPGGSLRLSCATSGFTFIDYYMSWVRQAPGKGLEWLGFIRNKANRYTTEYSASVKGRFTISRDNSKSILYLQMNSLKTEDTAVYYCTRDRPAWFVYWGQGTLVTVSS VL: DIVMTQTPLSLPVTPGEPASISCKSSQSLLYSSNQKNYLAWYLQKPGQSPQLLIYWASTRESGVPDRFSGSGSGTDFTLKISRVEAEDVGVYYCQQYYSYPYTFGGGTKVEIKR | 2.2 | 0.024
18 | CD98 (CL-huAb102)-AAA (antibody, human IgG1, kappa, L234A L235A, V domains shown, synthon AAA on reduced interchain cysteines (sites not given)) VH: EVQLVESGGGLVQPGGSLRLSCATSGFTFIDYYMSWVRQAPGKGLEWLGFIRNKANRYTTEYSASVKGRFTISRDNSKSILYLQMNSLKTEDTAVYYCTRDRPAWFVYWGQGTLVTVSS VL: DIVMTQTPLSLPVTPGEPASISCKSSQSLLYSSNQKNYLAWYLQKPGQSPQLLIYWASTRESGVPDRFSGSGSGTDFTLKISRVEAEDVGVYYCQQYYSYPYTFGGGTKVEIKR | 2.4 | 0.05
